1 substance from patent publication US20230256057A1 can be followed below.

This assay deals with IL-7 receptor (human) (UniProt P16871). Briefly: cell-based or functional assay.
Chain of UniProt P16871 (P16871 21-459, chain 1 of 2): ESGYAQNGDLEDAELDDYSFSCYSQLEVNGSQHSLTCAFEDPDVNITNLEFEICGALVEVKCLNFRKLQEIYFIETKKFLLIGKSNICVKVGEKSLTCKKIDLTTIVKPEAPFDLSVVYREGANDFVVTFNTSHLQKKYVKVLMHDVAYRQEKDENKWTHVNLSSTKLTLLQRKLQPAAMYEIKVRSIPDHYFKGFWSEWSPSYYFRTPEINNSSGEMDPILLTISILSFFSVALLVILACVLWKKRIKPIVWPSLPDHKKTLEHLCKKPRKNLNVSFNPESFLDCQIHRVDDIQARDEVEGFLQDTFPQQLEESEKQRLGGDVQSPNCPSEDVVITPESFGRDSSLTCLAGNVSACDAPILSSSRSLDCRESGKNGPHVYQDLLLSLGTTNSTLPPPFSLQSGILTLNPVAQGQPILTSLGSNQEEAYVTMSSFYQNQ
Chain of UniProt P16871 (P31785 23-369, chain 2 of 2, further chain): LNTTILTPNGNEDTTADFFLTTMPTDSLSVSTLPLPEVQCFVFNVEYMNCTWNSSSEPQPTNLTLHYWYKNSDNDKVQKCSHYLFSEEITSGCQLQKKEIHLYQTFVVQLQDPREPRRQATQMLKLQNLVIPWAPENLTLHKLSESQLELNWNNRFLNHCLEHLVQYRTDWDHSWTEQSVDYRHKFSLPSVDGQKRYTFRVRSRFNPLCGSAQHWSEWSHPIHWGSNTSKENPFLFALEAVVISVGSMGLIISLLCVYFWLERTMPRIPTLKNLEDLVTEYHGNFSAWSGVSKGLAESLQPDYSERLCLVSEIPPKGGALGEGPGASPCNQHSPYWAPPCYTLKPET

Take “human interleukin-7 fused to human Fc sequence of IgG2 (hIL-7-Fc) (Fc fusion)”: the pSTAT5 expression in CD3+ T cells of COVID19+ patients' whole blood, ratio to unstimulated condition; supernatant dilution 1/2.5 is 6.5 fold; the pSTAT5 expression in CD3+ T cells of COVID19+ patients' whole blood, ratio to unstimulated condition; supernatant dilution 1/5 was 5.7 fold; the pSTAT5 expression in CD3+ T cells of COVID19+ patients' whole blood, ratio to unstimulated condition; supernatant dilution 1/10 is 4.9 fold.
